Results on three molecules are retold here after US20110171220A1 (ISIS INNOVATION, published 2011).

Test [1] deals with T1, human PD-1 extracellular region / murine CD28 chimera, mutant V18R, on HEK-293T cells (human; mouse, UniProt Q15116 25-170; P31041 151-218, V18R).
T1 construct: extracellular domain;domain: transmembrane and intracellular regions; Single-residue 'drastic' mutant of m4
Description: flow cytometry on transfected HEK-293T cells. As to the method: (§1) Constructs encoding the human extracellular region of PD-1 with the transmembrane and intracellular regions of murine CD28 were cloned into the bi-cistronic mammalian expression vector pGFP2-n2 from BioSignal Packard Ltd, which also encodes GFP. Mutant constructs varying by one amino acid were prepared using the “drastic” mutagenesis approach (Davis et al. Proc Natl Acad Sci USA. 95, 5490-4 (1998)). Plasmids (2 μg/well) were transfected into HEK-293T cells in 6 well plates using Genejuice transfection reagent (Novagen; 6 μl/well). Mock and no-transfection controls were included with each experiment. Cells were harvested at 18-24 hours and stained with anti-PD1 antibodies or isotype controls at 10 μg/ml in PBS-azide for 1 h at 4° C. Cells were washed with PBS-Azide, pelleted at 1500 rpm/5 min and primary antibodies were labelled with Alexa647-conjugated donkey anti-mouse IgG (5 μg/ml) in PBS-Azide for 30 min at 4° C. Cells were washed as above and resuspended in 200 μl PBS-Azide before being analysed at the flow cytometer. Propidium iodide (5 μg/ml) was added immediately prior to analysis to identify dead cells. GFP-positive (transfected) viable cells were gated and analysed for binding of anti-PD1 antibodies. Mutants were defined as ‘knock-out’ (reducing the percentage of cells bound by the anti-PD1 antibody) or ‘knock-down’ (reducing the intensity of antibody staining relative to other PD-1 antibodies).
(§2) Following transfection, cells analysed at the flow cytometer were 85-90% viable by propidium iodide exclusion. Transfection efficiencies ranged from 15-50% (GFP⁺). Isotype controls were negative on all transfectants. […] V18R partially eliminates Clone 19 binding.

Test [2] has as its target T2, human PD-1 extracellular region / murine CD28 chimera, mutant L16R, on HEK-293T cells (human; mouse, UniProt Q15116 25-170; P31041 151-218, L16R).
T2 construct: extracellular domain;domain: transmembrane and intracellular regions; Single-residue 'drastic' mutant of m4
Kind of test: flow cytometry on transfected HEK-293T cells. As to the method: as §1, §2

In test [3] the target is T3, human PD-1 extracellular region / murine CD28 chimera, mutant R118D, on HEK-293T cells (human; mouse, UniProt Q15116 25-170; P31041 151-218, R118D).
T3 construct: extracellular domain;domain: transmembrane and intracellular regions; Single-residue 'drastic' mutant of m4
T3 sequence (Q15116 other isoform, or with tags, fused parts or gaps R118D | R118D R118D): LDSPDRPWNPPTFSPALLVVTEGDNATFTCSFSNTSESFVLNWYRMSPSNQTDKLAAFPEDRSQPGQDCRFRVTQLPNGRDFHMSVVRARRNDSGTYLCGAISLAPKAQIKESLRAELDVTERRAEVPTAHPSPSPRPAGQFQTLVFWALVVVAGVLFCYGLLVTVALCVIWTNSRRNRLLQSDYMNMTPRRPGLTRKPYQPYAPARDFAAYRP
Kind of test: flow cytometry on transfected HEK-293T cells. As to the method: as §1, §2
A general note: A flow cytometer gives signals particle by particle.

Test [4] addresses T4, Monomeric soluble human PD-1 (human, UniProt Q15116 25-170, limits assumed).
T4 construct: also called soluble PD-1
Description: SPR, antibody captured by rabbit anti-mouse Fc, soluble PD-1 injected. As to the method:
FIG. 12: Dissociation rates for Clone 2, 10 and 19 antibodies determined by surface plasmon resonance-based analysis. The three antibodies and a negative control (OX-7) were bound indirectly to the biosensor surface, i.e. via a covalently coupled rabbit anti-mouse Fc antibody. Monomeric soluble human PD-1 was then injected to saturating levels over the immobilized antibodies in the buffer 10 mM Hepes, 150 mM NaCl pH 7.4. Following injection of the soluble PD-1, the buffer only was injected, allowing dissociation of the bound soluble PD-1 from each of the antibodies simultaneously. Dissociation rates were fitted using Origin v.5.0 software (MicroCal Software Inc, Northampton, Mass.) after subtraction of the dissociation rate for OX-7 dissociating from the anti-mouse Fc antibody.
For orientation: Surface plasmon resonance follows binding to a sensor surface in real time, without labels.

T2 sequence (Q15116 other isoform, or with tags, fused parts or gaps L16R | L16R L16R): as the sequence (Q15116 other isoform, or with tags, fused parts or gaps R118D | R118D R118D) above, with L17R, D119R counted along it
T1 sequence (Q15116 other isoform, or with tags, fused parts or gaps V18R | V18R V18R): as the sequence (Q15116 other isoform, or with tags, fused parts or gaps R118D | R118D R118D) above, with V19R, D119R counted along it
T4 sequence (Q15116 25-170 limits assumed): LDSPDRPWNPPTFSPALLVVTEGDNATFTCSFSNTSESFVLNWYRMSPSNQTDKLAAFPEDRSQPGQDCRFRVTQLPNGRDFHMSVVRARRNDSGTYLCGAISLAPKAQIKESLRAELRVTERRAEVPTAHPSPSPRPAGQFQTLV

B1: Clone 10 anti-PD-1 antibody (antibody, IgG1, V domains shown)
VH: DVQLQESGPGLVKPSQSLSLTCTVTGYSITSDYAWNWIRQFPGNKLEWMGYINYSGSTSYNPSLKSRISITRDTSKNQFFLQLNSVTTEDTATYYCARWIGSSAWYFDVWGAGTTVTV
VL: DVLMTQTPLSLPVSLGDQASISCRSGQNIVHSNGNTYLEWYLQKPGQSPKLLIYKVSNRFFGVPDRISGSGSGTDFTLKISRVEAEDLGVYFCFQGSHVPFTFGSGTKLEIK
notes: the printed VH ends at ...GTTVTV; also called hybridoma 08090902
With B1, the binding result in test [1], in test [2] and in test [3] was “binds” in each case.

B2: Clone 19 anti-PD-1 antibody (antibody, IgG1, V domains shown)
VH: QVQLQQSGAELVKPGASVKMSCKAFGYTFTTYPIEWMKQNHGKSLEWIGNFHPYNDDTKYNEKFKGKAKLTVEKSSTTVYLELSRLTSDDSAVYYCARENYGSHGGFVYWGQGTLVTV
VL: ENVLTQSPAIMSASPGEKVTMTCRASSSVISSYLHWYQQKSGASPKLWIYSTSNLASGVPDRFSGSGSGTSYSLTISSVEAEDAATYYCQQYNGYPLTFGAGTKLEIK
notes: the printed VH ends at ...GTLVTV; Constant regions are named only in an embodiment (GenBank D78344, V00807); also called monoclonal antibody produced by clone 19; hybridoma 08090901
On to B2, for which the results for the binding result in test [1], in test [2] and in test [3] were “binds”, “no binding (tested: 10 µg/ml)” and “no binding (tested: 10 µg/ml)”, respectively.

B3: Clone 2 anti-PD-1 antibody (antibody, V domains shown)
VH: QVQLQQPGAELVKPGASVKLSCKASGYTFTTYYLYWVRQRPGQGLEWIGGINPSNGGTNFNEKFKSKATLTVDKSSSTAYMQLNSLTSEDSAVYYCTRRDYRYDRGFDYWGQGTSVTV
VL: DIVLTQSPASLAVSLGQRATISCRASKSVSTSGFNYIHWYQQKPGQPPKLLIYLASNLESGVPARFSGSGSGTDFTLNIHPVEDEDAATYYCQHSRELPLTFGAGTKLEIK
notes: The printed VH ends at ...GTSVT; also called hybridoma 08090903
Consider B3, for which, in test [4], the binding result is on record as “binds”.
